Results taken from PMC10786891, “Massively parallel profiling of RNA-targeting CRISPR-Cas13d”.

T1: EsCas13d, nuclease-dead (Eubacterium siraeum, UniProt B0MS50, R295A;H300A;R849A;H854A)
T1 sequence: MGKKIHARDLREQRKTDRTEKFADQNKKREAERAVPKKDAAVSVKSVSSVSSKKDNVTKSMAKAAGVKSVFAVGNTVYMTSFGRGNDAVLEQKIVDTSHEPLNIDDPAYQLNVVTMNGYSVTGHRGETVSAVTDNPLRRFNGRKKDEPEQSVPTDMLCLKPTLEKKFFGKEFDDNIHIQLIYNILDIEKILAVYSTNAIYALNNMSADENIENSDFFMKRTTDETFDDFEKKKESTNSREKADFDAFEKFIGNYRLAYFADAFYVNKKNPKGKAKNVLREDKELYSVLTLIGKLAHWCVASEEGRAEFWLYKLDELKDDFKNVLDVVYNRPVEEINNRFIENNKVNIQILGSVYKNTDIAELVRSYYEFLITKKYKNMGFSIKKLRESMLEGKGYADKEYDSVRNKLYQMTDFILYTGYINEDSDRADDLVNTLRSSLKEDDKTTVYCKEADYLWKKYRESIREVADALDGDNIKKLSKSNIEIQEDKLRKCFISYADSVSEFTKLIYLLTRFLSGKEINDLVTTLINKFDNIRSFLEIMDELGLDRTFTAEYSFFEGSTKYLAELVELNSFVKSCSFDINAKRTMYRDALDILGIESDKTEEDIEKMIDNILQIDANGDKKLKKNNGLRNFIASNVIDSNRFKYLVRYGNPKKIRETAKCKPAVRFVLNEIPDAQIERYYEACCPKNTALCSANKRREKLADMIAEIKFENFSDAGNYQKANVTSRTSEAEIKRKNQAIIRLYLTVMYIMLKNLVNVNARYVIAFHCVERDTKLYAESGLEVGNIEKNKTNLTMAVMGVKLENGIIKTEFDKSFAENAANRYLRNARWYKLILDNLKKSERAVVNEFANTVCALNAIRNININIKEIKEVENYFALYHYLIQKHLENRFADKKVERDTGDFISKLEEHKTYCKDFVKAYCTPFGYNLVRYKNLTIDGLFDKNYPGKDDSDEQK


Target: T1, EsCas13d, nuclease-dead
Assay: crRNA (strand 1, pre-loaded); Mg2+; 40 mM Tris-HCl pH 7.5, 150 mM NaCl, 6 mM MgCl2, 1 mM DTT, 0.1% Tween-20, 0.2 mg/ml BSA; 25 C; 10 min per concentration, then washed
Conditions: tags: His6-TwinStrep-SUMO cleaved; N-terminal SNAP kept (SNAP-Surface 488); label: 3' end held by stalled T7 RNA polymerase

Row | Binder | Kd
1 | target 1 G5C,A9U (mixed) RNA 1: CACCCGUGCAAAAAUGCAGGGGUCUAAAACUGAGCGGAUAACCUCUCUAUGG RNA 2: GGGAAUGGAUCCACAUCUACGAAUUCGUACCAUAGAGAGGUUUUCCCCUCACCGAGAUCGGAAGAGCACACGU | 11.8 ± 0.6 nM
2 | target 1 insG 3' of 18,insG 3' of 6 (mixed) RNA 1: CACCCGUGCAAAAAUGCAGGGGUCUAAAACUGAGCGGAUAACCUCUCUAUGG RNA 2: GGGAAUGGAUCCACAUCUACGAAUUCGUACCAUAGGAGAGGUUAUCCGGCUCACCGAGAUCGGAAGAGCACACGU | 71 ± 28 nM
3 | target 1 insG 3' of 22,insG 3' of 4 (mixed) RNA 1: CACCCGUGCAAAAAUGCAGGGGUCUAAAACUGAGCGGAUAACCUCUCUAUGG RNA 2: GGGAAUGGAUCCACAUCUACGAAUUCGUACGCAUAGAGAGGUUAUCCGCGUCACCGAGAUCGGAAGAGCACACGU | 26.2 ± 2.8 nM
4 | target 2 MT 5'PFS AGA 3'PFS AUC (mixed) RNA 1: CACCCGUGCAAAAUUGCAGGGGUCUAAAACCUUCUCCAAAUUGUUUCAUCCU RNA 2: GGGAAUGGAUCCACAUCUACGAAUUCAGAAGGAUGAAACAAUUUGGAGAAGAUCAGAUCGGAAGAGCACACGU | 9.6 ± 2.3 nM
5 | target 2 MT 5'PFS ACU 3'PFS CGU (mixed) RNA 1: CACCCGUGCAAAAUUGCAGGGGUCUAAAACCUUCUCCAAAUUGUUUCAUCCU RNA 2: GGGAAUGGAUCCACAUCUACGAAUUCACUAGGAUGAAACAAUUUGGAGAAGCGUAGAUCGGAAGAGCACACGU | 8.1 ± 1.3 nM
6 | target 2 MT 5'PFS UUA 3'PFS AUU (mixed) RNA 1: CACCCGUGCAAAAUUGCAGGGGUCUAAAACCUUCUCCAAAUUGUUUCAUCCU RNA 2: GGGAAUGGAUCCACAUCUACGAAUUCUUAAGGAUGAAACAAUUUGGAGAAGAUUAGAUCGGAAGAGCACACGU | 18.5 ± 1.4 nM
7 | target 2 MT 5'PFS CGA 3'PFS CCG (mixed) RNA 1: CACCCGUGCAAAAUUGCAGGGGUCUAAAACCUUCUCCAAAUUGUUUCAUCCU RNA 2: GGGAAUGGAUCCACAUCUACGAAUUCCGAAGGAUGAAACAAUUUGGAGAAGCCGAGAUCGGAAGAGCACACGU | 11.1 ± 1.6 nM
8 | target 2 MT 5'PFS CUU 3'PFS UAC (mixed) RNA 1: CACCCGUGCAAAAUUGCAGGGGUCUAAAACCUUCUCCAAAUUGUUUCAUCCU RNA 2: GGGAAUGGAUCCACAUCUACGAAUUCCUUAGGAUGAAACAAUUUGGAGAAGUACAGAUCGGAAGAGCACACGU | 4.9 ± 0.6 nM
9 | target 2 MT 5'PFS ACU 3'PFS CGG (mixed) RNA 1: CACCCGUGCAAAAUUGCAGGGGUCUAAAACCUUCUCCAAAUUGUUUCAUCCU RNA 2: GGGAAUGGAUCCACAUCUACGAAUUCACUAGGAUGAAACAAUUUGGAGAAGCGGAGAUCGGAAGAGCACACGU | 3.47 ± 0.28 nM
10 | target 2 MT 5'PFS ACU 3'PFS CGA (mixed) RNA 1: CACCCGUGCAAAAUUGCAGGGGUCUAAAACCUUCUCCAAAUUGUUUCAUCCU RNA 2: GGGAAUGGAUCCACAUCUACGAAUUCACUAGGAUGAAACAAUUUGGAGAAGCGAAGAUCGGAAGAGCACACGU | 4.1 ± 0.4 nM
11 | target 2 MT 5'PFS ACU 3'PFS CGC (mixed) RNA 1: CACCCGUGCAAAAUUGCAGGGGUCUAAAACCUUCUCCAAAUUGUUUCAUCCU RNA 2: GGGAAUGGAUCCACAUCUACGAAUUCACUAGGAUGAAACAAUUUGGAGAAGCGCAGAUCGGAAGAGCACACGU | 7.1 ± 1 nM
12 | target 2 MT 5'PFS AAA 3'PFS CUU (mixed) RNA 1: CACCCGUGCAAAAUUGCAGGGGUCUAAAACCUUCUCCAAAUUGUUUCAUCCU RNA 2: GGGAAUGGAUCCACAUCUACGAAUUCAAAAGGAUGAAACAAUUUGGAGAAGCUUAGAUCGGAAGAGCACACGU | 3.9 ± 0.6 nM
13 | target 2 MT 5'PFS AAG 3'PFS CCA (mixed) RNA 1: CACCCGUGCAAAAUUGCAGGGGUCUAAAACCUUCUCCAAAUUGUUUCAUCCU RNA 2: GGGAAUGGAUCCACAUCUACGAAUUCAAGAGGAUGAAACAAUUUGGAGAAGCCAAGAUCGGAAGAGCACACGU | 8.7 ± 1.6 nM
14 | target 2 MT 5'PFS CGA 3'PFS UAC (mixed) RNA 1: CACCCGUGCAAAAUUGCAGGGGUCUAAAACCUUCUCCAAAUUGUUUCAUCCU RNA 2: GGGAAUGGAUCCACAUCUACGAAUUCCGAAGGAUGAAACAAUUUGGAGAAGUACAGAUCGGAAGAGCACACGU | 9.5 ± 1.9 nM
15 | target 2 MT 5'PFS CUU 3'PFS UAA (mixed) RNA 1: CACCCGUGCAAAAUUGCAGGGGUCUAAAACCUUCUCCAAAUUGUUUCAUCCU RNA 2: GGGAAUGGAUCCACAUCUACGAAUUCCUUAGGAUGAAACAAUUUGGAGAAGUAAAGAUCGGAAGAGCACACGU | 3 ± 0.32 nM
16 | target 2 MT 5'PFS CGA 3'PFS CCA (mixed) RNA 1: CACCCGUGCAAAAUUGCAGGGGUCUAAAACCUUCUCCAAAUUGUUUCAUCCU RNA 2: GGGAAUGGAUCCACAUCUACGAAUUCCGAAGGAUGAAACAAUUUGGAGAAGCCAAGAUCGGAAGAGCACACGU | 31 ± 8 nM
17 | target 2 MT 5'PFS GGU 3'PFS AGU (mixed) RNA 1: CACCCGUGCAAAAUUGCAGGGGUCUAAAACCUUCUCCAAAUUGUUUCAUCCU RNA 2: GGGAAUGGAUCCACAUCUACGAAUUCGGUAGGAUGAAACAAUUUGGAGAAGAGUAGAUCGGAAGAGCACACGU | 17.7 ± 2.6 nM
18 | target 2 MT 5'PFS CUU 3'PFS UAG (mixed) RNA 1: CACCCGUGCAAAAUUGCAGGGGUCUAAAACCUUCUCCAAAUUGUUUCAUCCU RNA 2: GGGAAUGGAUCCACAUCUACGAAUUCCUUAGGAUGAAACAAUUUGGAGAAGUAGAGAUCGGAAGAGCACACGU | 4.3 ± 0.8 nM
19 | target 2 MT 5'PFS GGG 3'PFS CUU (mixed) RNA 1: CACCCGUGCAAAAUUGCAGGGGUCUAAAACCUUCUCCAAAUUGUUUCAUCCU RNA 2: GGGAAUGGAUCCACAUCUACGAAUUCGGGAGGAUGAAACAAUUUGGAGAAGCUUAGAUCGGAAGAGCACACGU | 14.2 ± 1.4 nM
20 | target 2 MT 5'PFS AAU 3'PFS UUC (mixed) RNA 1: CACCCGUGCAAAAUUGCAGGGGUCUAAAACCUUCUCCAAAUUGUUUCAUCCU RNA 2: GGGAAUGGAUCCACAUCUACGAAUUCAAUAGGAUGAAACAAUUUGGAGAAGUUCAGAUCGGAAGAGCACACGU | 9.7 ± 1.5 nM
21 | target 2 MT 5'PFS AAG 3'PFS CCG (mixed) RNA 1: CACCCGUGCAAAAUUGCAGGGGUCUAAAACCUUCUCCAAAUUGUUUCAUCCU RNA 2: GGGAAUGGAUCCACAUCUACGAAUUCAAGAGGAUGAAACAAUUUGGAGAAGCCGAGAUCGGAAGAGCACACGU | 6.3 ± 0.9 nM
22 | target 2 MT 5'PFS GGG 3'PFS CUC (mixed) RNA 1: CACCCGUGCAAAAUUGCAGGGGUCUAAAACCUUCUCCAAAUUGUUUCAUCCU RNA 2: GGGAAUGGAUCCACAUCUACGAAUUCGGGAGGAUGAAACAAUUUGGAGAAGCUCAGAUCGGAAGAGCACACGU | 15.5 ± 1.6 nM
23 | target 2 MT 5'PFS CUU 3'PFS UAU (mixed) RNA 1: CACCCGUGCAAAAUUGCAGGGGUCUAAAACCUUCUCCAAAUUGUUUCAUCCU RNA 2: GGGAAUGGAUCCACAUCUACGAAUUCCUUAGGAUGAAACAAUUUGGAGAAGUAUAGAUCGGAAGAGCACACGU | 3.22 ± 0.27 nM
24 | target 2 MT 5'PFS GGG 3'PFS CUG (mixed) RNA 1: CACCCGUGCAAAAUUGCAGGGGUCUAAAACCUUCUCCAAAUUGUUUCAUCCU RNA 2: GGGAAUGGAUCCACAUCUACGAAUUCGGGAGGAUGAAACAAUUUGGAGAAGCUGAGAUCGGAAGAGCACACGU | 11.7 ± 1 nM
25 | target 2 MT 5'PFS AAU 3'PFS UUA (mixed) RNA 1: CACCCGUGCAAAAUUGCAGGGGUCUAAAACCUUCUCCAAAUUGUUUCAUCCU RNA 2: GGGAAUGGAUCCACAUCUACGAAUUCAAUAGGAUGAAACAAUUUGGAGAAGUUAAGAUCGGAAGAGCACACGU | 6.5 ± 0.8 nM
26 | target 2 MT 5'PFS GGG 3'PFS CUA (mixed) RNA 1: CACCCGUGCAAAAUUGCAGGGGUCUAAAACCUUCUCCAAAUUGUUUCAUCCU RNA 2: GGGAAUGGAUCCACAUCUACGAAUUCGGGAGGAUGAAACAAUUUGGAGAAGCUAAGAUCGGAAGAGCACACGU | 10.9 ± 1.9 nM
27 | target 2 MT 5'PFS AUG 3'PFS UCU (mixed) RNA 1: CACCCGUGCAAAAUUGCAGGGGUCUAAAACCUUCUCCAAAUUGUUUCAUCCU RNA 2: GGGAAUGGAUCCACAUCUACGAAUUCAUGAGGAUGAAACAAUUUGGAGAAGUCUAGAUCGGAAGAGCACACGU | 17.4 ± 2.6 nM
28 | target 2 MT 5'PFS AGA 3'PFS AUA (mixed) RNA 1: CACCCGUGCAAAAUUGCAGGGGUCUAAAACCUUCUCCAAAUUGUUUCAUCCU RNA 2: GGGAAUGGAUCCACAUCUACGAAUUCAGAAGGAUGAAACAAUUUGGAGAAGAUAAGAUCGGAAGAGCACACGU | ~5.7 nM
